# Test results taken from patent US20250283065A1, “TRUNCATED POLYPEPTIDES HAVING PROTEIN LIGASE ACTIVITY AND METHODS OF PRODUCTION THEREOF” (NANYANG TECHNOLOGICAL UNIVERSITY, priority 2022, published 2025).
# Experiments:
# TrmJ-NAL = assay: Conjugation of TrmJ with a fluorescent peptide (SDS PAGE); format: biochemical; settings: 200 nM enzyme, 37° C., after an hour of reaction time
# Experimental: Conjugation of TrmJ: A concentration of 200 nM of OaAEP1b-C247A-4351 was used to conjugate 10 μM of TrmJ-NAL with 50 μM of a short fluorescence peptide synthesized by Genscript: GIGGIYRK-FITC (SEQ ID NO:21). This reaction was carried out in a 20 mM NaH2PO4, pH 6.5 at 37° C. for 1 hour with a final volume of 500 μL. A volume of 50 µL of the reaction was mixed with 5×SDS loading dye after 5, 10, 20, 30 and 60 minutes. The amount of conjugated TrmJ-NAL at all time points was then analyzed using SDS PAGE.
# To evaluate OaAEP1b-C247A-Δ351 conjugation capability, a protein of 20 kDa, tRNA methyltransferase, TrmJ were conjugated. TrmJ was modified to include the C-terminal OaAEP1b-C247A-Δ351 preferred tripeptide recognition motif (Asn-Ala-Leu). Using 200 nM of OaAEP1b-C247A-Δ351, TrmJ present in the solution was able to conjugate with a short fluorescence peptide consisting of an N-terminal Gly/Ile (GIGGIYRK-FITC) (SEQ ID NO: 21). The conjugation rate at 37° C. was analyzed using SDS PAGE at […] different time points.
# [1] = Refolding from E. coli inclusion bodies (urea solubilization, dialysis); format: physicochemical; settings: urea solubilization followed by refolding
# Experimental: Refolding and purification of constitutively active OaAEP1b-C247A-4351 using dialysis method: With all steps performed at 4° C., protein purification was achieved by resuspending thawed pellets in 30 mL of lysis buffer (100 mM Bis-Tris, pH 6.5, 500 mM NaCl, 10% (v/v) glycerol), sonicating the pellets followed by clearing the lysates by centrifugation at 58,000 g for 45 min. The insoluble fraction was resolubilized in 10 mL of resolubilizing buffer (50 mM Bis-Tris, pH 6.5, 150 mM NaCl, 1 mM EDTA, 50 mM Glycine, 8 M urea) overnight, with agitation. The concentration of denatured protein was determined using nanodrop and diluted to ˜2 mg mL-1 with buffer 1 (50 mM Bis-Tris, pH 6.5, 150 mM NaCl, 500 mM L-Arginine, 1 M urea, 0.25 mM L-Glutathione oxidized, 2.5 mM L-Glutathione reduced). The diluted denatured protein was dialyzed against buffer 2 (50 mM Bis-Tris, pH 6.5, 150 mM NaCl, 200 mM L-Arginine, 0.125 mM L-Glutathione oxidized, 1.25 mM L-Glutathione reduced) for 8 hr, followed by two buffer exchanges with buffer 3 (20 mM Bis-Tris, pH 6.5, 150 mM NaCl), for a duration of 8 hr for each buffer exchange. The refolded proteins were purified by affinity chromatography (HisTrap column, Cytiva), followed by size exclusion chromatography (HiLoad 16/600 Superdex 200, Cytiva). The proteins eluted as monomers during size exclusion purification. […]
# OaAEP1b-C247A-Δ351 = assay: Active site titration by FRET ligation assay with covalent inhibitor; format: biochemical, Oldenlandia affinis; settings: 1 hour incubation with Ac-YVAD-cmk, enzyme 280 nM
# Experimental: Active site titration: The procedure described in reference was followed. The enzyme preparation was diluted to a concentration of 280 nM using a buffer containing 20 mM sodium phosphate at pH 6.5, 5 mM 2-Mercaptoethanol. Solutions containing serial twofold dilution of inhibitor YVAD-cmk were prepared in a black microtiter plate (Greiner Bio-One) using buffer as diluent. The enzyme was subsequently added to the wells containing the inhibitor to a final volume of 50 μL. The plate was incubated for 1 hour at room temperature before adding FRET peptides (PIE {EDANS} YNAL (SEQ ID NO:18) and GIK {DABSYL} SIP (SEQ ID NO: 19)), which were mixed at a molar ratio of 1:3 giving a final enzyme: substrate molar ratio of 1:200. The EDANS fluorescence signal was measured with an excitation wavelength of 336 nm and an emission wavelength of 490 nm. Relative fluorescence units (RFU) of quenched EDANS signal were plotted against time. The value of the initial velocity (Vi) was determined from the slope of the RFU (t) curve. The measured value of Vi was subsequently normalized by dividing with the initial rate obtained in the absence of inhibitor (control V0). The calculated Vi/V0 ratio was plotted against inhibitor concentrations, generating an inhibition curve. […]
# Sequence of OaAEP1b-C247A-Δ351 (as listed by the source, stated change not applied): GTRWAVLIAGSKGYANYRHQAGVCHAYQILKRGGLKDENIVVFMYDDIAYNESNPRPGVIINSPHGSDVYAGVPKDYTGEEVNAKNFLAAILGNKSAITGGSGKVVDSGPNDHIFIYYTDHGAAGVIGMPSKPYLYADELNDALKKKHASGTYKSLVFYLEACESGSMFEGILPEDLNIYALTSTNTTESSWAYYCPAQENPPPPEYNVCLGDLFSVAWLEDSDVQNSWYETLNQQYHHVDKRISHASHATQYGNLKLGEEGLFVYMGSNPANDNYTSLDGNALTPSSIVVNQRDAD
molecule,measurement,setting,value
"OaAEP1b-C247A-Δ351: truncated OaAEP1b-C247A construct, residues 352-474 deleted, D351 as C-terminus; constitutively active peptide asparaginyl ligase (protein) GTRWAVLIAGSKGYANYRHQAGVCHAYQILKRGGLKDENIVVFMYDDIAYNESNPRPGVIINSPHGSDVYAGVPKDYTGEEVNAKNFLAAILGNKSAITGGSGKVVDSGPNDHIFIYYTDHGAAGVIGMPSKPYLYADELNDALKKKHASGTYKSLVFYLEACESGSMFEGILPEDLNIYALTSTNTTESSWCYYCPAQENPPPPEYNVCLGDLFSVAWLEDSDVQNSWYETLNQQYHHVDKRISHASHATQYGNLKLGEEGLFVYMGSNPANDNYTSLDGNALTPSSIVVNQRDAD",conjugation of TrmJ with GIGGIYRK-FITC,TrmJ-NAL,most of TrmJ was labelled with FITC
same,behaviour during refolding procedure,[1],could be refolded
same,fraction of the measured protein concentration that is active and amenable to complete inhibition,OaAEP1b-C247A-Δ351,about 53%
